Results reported in patent US20130273046A1 (published 2013).
Blank lines part the entries; values can stand above or below the binder they belong to.

Molecular target: human EDAR-Fc
Experiment: SPR (Biacore); Fab fragment

Sequence of human EDAR-Fc (chain, as listed by the source): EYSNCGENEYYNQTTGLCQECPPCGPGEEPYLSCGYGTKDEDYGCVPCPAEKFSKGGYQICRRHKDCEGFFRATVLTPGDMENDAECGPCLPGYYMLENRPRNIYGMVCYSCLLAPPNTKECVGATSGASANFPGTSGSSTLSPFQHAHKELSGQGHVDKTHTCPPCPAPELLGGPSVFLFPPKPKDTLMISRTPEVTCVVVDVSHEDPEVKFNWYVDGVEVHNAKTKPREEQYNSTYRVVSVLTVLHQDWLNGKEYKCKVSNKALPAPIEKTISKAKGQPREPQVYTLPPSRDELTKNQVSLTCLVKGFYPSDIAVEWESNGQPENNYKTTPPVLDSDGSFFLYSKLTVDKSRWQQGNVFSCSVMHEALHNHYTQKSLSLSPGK

Kd: 1.58 nM
B1: mAbEDAR6 (antibody, V domains shown)
VH: EVQLQQSGPELVKPGASVKMSCKASGYSFTGYNMHWVKQSHGKSLEWIGYIDPYNGATSKNQKFKGKATLTVDKSSTTAYIQLNSLTSEDSAVYYCARYYYGDYHWYFDVWGAGTTVTVSS
VL: DVVMTQTPLSLPVSLGDQASISCRSSQSLVHSNGNTYLHWYLQQPGQSPKLLIYKVSNRFSGVPDRFSGSGSGTDFTLKISRVEAEDLGVYFCSQHTHVPPTFGAGTKLELKR

Kd: 1 nM
B2: mAbEDAR2 (antibody, V domains shown)
VH: QVQLQQPGAELVKPGASVKLSCKASGYTFTSYWMQWVKQRPGQGIEWIGEIDPSDSYTYYNQKFKGKATLTIDKSSSTAYMQLSSLTSEDSAVYYCSRKNYYRGMDYWGQGTSVTVSS
VL: DVLMTQTPLSLPVSLGDQASISCRSSQNIVQSNGNTYLEWYLQKPGQSPKLLIYKVSNRFSGVPDRFSGSGSGTDFTLKISRVEADDLGVYYCFQVSHVPYTFGGGTKLEIKR
